Test results taken from article PMC6706469.

Tests used:
[1] = target: P34 (trypanosome-specific protein), endogenous (Trypanosoma brucei (endogenous in T. brucei cells)); assay: co-IP; whole-cell extract of 3×Ty-TbL11 T. brucei cells, without RNase A; beads with antibody to the target (anti-P34/P37, anti-TbL5 or anti-TbRpf2); anti-Ty Western blot of pellet and supernatant; amount in the pellet relative to pellet plus supernatant
[2] = target: P37 (trypanosome-specific protein), endogenous (Trypanosoma brucei (endogenous in T. brucei cells)); assay: as above
[3] = target: TbL5 (Trypanosoma brucei ribosomal protein L5), endogenous (Trypanosoma brucei (endogenous in T. brucei cells)); assay: as above
[4] = target: TbRpf2 (Trypanosoma brucei homologue of Rpf2), endogenous (Trypanosoma brucei (endogenous in T. brucei cells)); assay: as above
[5] = target: P34 (trypanosome-specific protein), endogenous (Trypanosoma brucei (endogenous in T. brucei cells)); assay: co-IP; whole-cell extract of 3×Ty-TbL11 T. brucei cells, with RNase A added to digest cellular RNA; beads with antibody to the target (anti-P34/P37, anti-TbL5 or anti-TbRpf2); anti-Ty Western blot of pellet and supernatant; amount in the pellet relative to pellet plus supernatant
[6] = target: P37 (trypanosome-specific protein), endogenous (Trypanosoma brucei (endogenous in T. brucei cells)); assay: as above
[7] = target: TbL5 (Trypanosoma brucei ribosomal protein L5), endogenous (Trypanosoma brucei (endogenous in T. brucei cells)); assay: as above
[8] = target: TbRpf2 (Trypanosoma brucei homologue of Rpf2), endogenous (Trypanosoma brucei (endogenous in T. brucei cells)); assay: as above
[9] = target: Recombinant P34 (Trypanosoma brucei); assay: co-IP; in vitro, recombinant TbL11 incubated with the recombinant target, without 5S rRNA; precipitated with antibody to the target; anti-His Western blot; amount in the pellet relative to pellet plus supernatant
[10] = target: Recombinant TbL5 (Trypanosoma brucei); assay: as above
[11] = target: Recombinant TbRpf2 (Trypanosoma brucei); assay: as above
[12] = target: Recombinant P34 (Trypanosoma brucei); assay: co-IP; in vitro, recombinant TbL11 incubated with the recombinant target, with in vitro-transcribed 5S rRNA added; precipitated with antibody to the target; anti-His Western blot; amount in the pellet relative to pellet plus supernatant
[13] = target: Recombinant TbL5 (Trypanosoma brucei); assay: as above
[14] = target: Recombinant TbRpf2 (Trypanosoma brucei); assay: as above

Row | fraction in the pellet (pellet relative to pellet plus supernatant) [1] | fraction in the pellet (pellet relative to pellet plus supernatant) [2] | fraction in the pellet (pellet relative to pellet plus supernatant) [3] | fraction in the pellet (pellet relative to pellet plus supernatant) [4] | fraction in the pellet (pellet relative to pellet plus supernatant) [5] | fraction in the pellet (pellet relative to pellet plus supernatant) [6] | fraction in the pellet (pellet relative to pellet plus supernatant) [7] | fraction in the pellet (pellet relative to pellet plus supernatant) [8] | fraction in the pellet (pellet relative to pellet plus supernatant) [9] | fraction in the pellet (pellet relative to pellet plus supernatant) [10] | fraction in the pellet (pellet relative to pellet plus supernatant) [11] | fraction in the pellet (pellet relative to pellet plus supernatant) [12] | fraction in the pellet (pellet relative to pellet plus supernatant) [13] | fraction in the pellet (pellet relative to pellet plus supernatant) [14] | Substance
1 | 0.16 | 0.16 | 0.53 | 0.07 | 0.53 | 0.53 | 0.67 | 0.58 | – | – | – | – | – | – | 3×Ty-TbL11 (Ty-tagged Trypanosoma brucei ribosomal protein L11) (natural protein)
2 | – | – | – | – | – | – | – | – | 0.96 | 0.92 | 0.86 | 0.85 | 0.9 | 0.83 | Recombinant TbL11 (Trypanosoma brucei ribosomal protein L11) (natural protein)
